Test results reported in publication PMC11906750.
Where two headings read alike, the source gives them in different places.

How the values were obtained:
Test in all cases: FRET or BRET
[1] = biological target: HC-Pro^Tu-CFP (turnip mosaic virus)
[2] = biological target: HC-Pro^Tu-K-CFP (turnip mosaic virus)
[3] = biological target: HC-Pro^Tu-CFP (turnip mosaic virus); remark: listed apart in the source
[4] = biological target: HC-Pro^Tu-K-CFP (turnip mosaic virus); remark: listed apart in the source

HC-Pro^Tu-CFP (natural protein)
FRET efficiency [1]: 70%

HC-Pro^Tu-K-CFP (natural protein)
FRET efficiency [2]: 72%

B1: YFP-HEN1 (enzyme)
chain: MAGGGKHTPTPKAIIHQKFGAKASYTVEEVHDSSQSGCLGLAIPQKGPCLYRCHLQLPEFSVVSNVFKKKKDSEQSAAELALDKLGIRPQNDDLTVDEARDEIVGRIKYIFSDEFLSAEHPLGAHLRAALRRDGERCGSVPVSVIATVDAKINSRCKIINPSVESDPFLAISYVMKAAAKLADYIVASPHGLRRKNAYPSEIVEALATHVSDSLHSREVAAVYIPCIDEEVVELDTLYISSNRHYLDSIAERLGLKDGNQVMISRMFGKASCGSECRLYSEIPKKYLDNSSDASGTSNEDSSHIVKSRNARASYICGQDIHGDAILASVGYRWKSDDLDYDDVTVNSFYRICCGMSPNGIYKISRQAVIAAQLPFAFTTKSNWRGPLPREILGLFCHQHRLAEPILSSSTAPVKSLSDIFRSHKKLKVSGVDDANENLSRQKEDTPGLGHGFRCEVKIFTKSQDLVLECSPRKFYEKENDAIQNASLKALLWFSKFFADLDVDGEQSCDTDDDQDTKSSSPNVFAAPPILQKEHSSESKNTNVLSAEKRVQSITNGSVVSICYSLSLAVDPEYSSDGESPREDNESNEEMESEYSANCESSVELIESNEEIEFEVGTGSMNPHIESEVTQMTVGEYASFRMTPPDAAEALILAVGSDTVRIRSLLSERPCLNYNILLLGVKGPSEERMEAAFFKPPLSKQRVEYALKHIRESSASTLVDFGCGSGSLLDSLLDYPTSLQTIIGVDISPKGLARAAKMLHVKLNKEACNVKSATLYDGSILEFDSRLHDVDIGTCLEVIEHMEEDQACEFGEKVLSLFHPKLLIVSTPNYEFNTILQRSTPETQEENNSEPQLPKFRNHDHKFEWTREQFNQWASKLGKRHNYSVEFSGVGGSGEVEPGFASQIAIFRREASSVENVAESSMQPYKVIWEWKKEDVEKKKTDL
FRET efficiency [3]: 55%

B2: YFP-ATG8a (natural protein)
chain: MAKSSFKISNPLEARMSESSRIREKYPDRIPVIVEKAGQSDVPDIDKKKYLVPADLTVGQFVYVVRKRIKLGAEKAIFVFVKNTLPPTAALMSAIYEEHKDEDGFLYMTYSGENTFG
FRET efficiency [3]: 30%
FRET efficiency [4]: 30%
